Source: paper PMC3124080

Target: Trypanosoma cruzi uridine phosphorylase (Trypanosoma cruzi)
Experiment: SEC

stoichiometry N: 2
Substance: Trypanosoma cruzi uridine phosphorylase (enzyme)
